For assay [1], the target named is T1, mouse κ-opioid receptor (KOR) tagged with EGFP (mouse, UniProt P33534 1-380).
T1 construct: κ-opioid receptor, mouse; cloned into the pEGFP-N1 vector with BamHI and HindIII; read as EGFP at the receptor's C-terminus; also called mouse KOR; KOR-EGFP; source: HEK293, stably expressing (membrane preparations; whole cells for cAMP); HEK293, transiently transfected (BRET); not shown: EGFP, C-terminal, kept
Kind of assay: radioligand binding; concentration-dependent competition against 1 nM [3H]-diprenorphine on membranes (7 μg/assay) of HEK293 cells stably expressing the mouse KOR; 50 mM Tris–HCl pH 7.4, 10 mM MgCl2, 0.1% BSA; 1 h at 37 °C; Ki from IC50 by Cheng and Prusoff. The settings on record: one partner purified.

The target in assay [2] is T1, mouse κ-opioid receptor (KOR) tagged …. Put plainly: cell-based or functional assay.
Assay [3] shares this target. Put plainly: radioligand binding; two-point displacement: 1 nM [3H]-diprenorphine with or without 10 μM or 100 nM peptide on membranes of HEK293 cells stably expressing the mouse KOR. The settings on record: one partner purified.
Assay [4] has the same target. Put plainly: radioligand binding; three concentrations of SFTI-1 (μM), displacement of 1 nM [3H]-diprenorphine on membranes of HEK293 cells stably expressing the mouse KOR. The settings on record: one partner purified.
For assay [5], the target named is T2, mouse δ-opioid receptor (DOR) (mouse, UniProt P32300 1-372).
T2 construct: δ-opioid receptor, mouse; the construct is not described; source: HEK293, stably expressing, membrane preparations
Kind of assay: radioligand binding; competition against [3H]-diprenorphine on membranes of HEK293 cells stably expressing the mouse MOR (50 μg) or DOR (20 μg); 50 mM Tris–HCl pH 7.4, 10 mM MgCl2, 0.1% BSA; 1 h at 37 °C. The settings on record: one partner purified.

Assay [6] addresses T3, mouse μ-opioid receptor (MOR) (mouse, UniProt P42866 1-398).
T3 construct: μ-opioid receptor, mouse; the construct is not described; source: HEK293, stably expressing, membrane preparations
The assay is described as above. The settings on record: one partner purified.

In assay [7] the target is T1, mouse κ-opioid receptor (KOR) tagged …. Kind of assay: cell-based or functional assay. This is another data set of the same source.

We go through 16 molecules from PMC8273886, “Design of a Stable Cyclic Peptide Analgesic Derived from Sunflower Seeds that Targets the κ-Opioid Receptor for the Treatment of Chronic Abdominal Pain” (Journal of Medicinal Chemistry, 2021).

For orientation: Ki means a measure of affinity in units of concentration, obtained from inhibition or displacement.

Bridge positions count the residues as written; N and C are the ends. Square brackets hold non-standard residues; d marks the D form. dNle = CCCC[C@@H](N)C(=O)O

B1: helianorphin-3 (peptide)
peptide: cyclo(CYGGFLRRICFPDGR)
modifications: disulfide 1-10 (inferred)
notes: source: synthetic peptide (Fmoc chemistry, backbone cyclised, oxidised, RP-HPLC purified)
The molecule B1 showed a Ki in assay [1] of 3200 nM. Besides, in assay [2], the “cAMP inhibition in HEK293 cells stably expressing the mouse KOR, EC50” value (“cAMP inhibition … EC50” for short) stood at 1400 nM and the “cAMP inhibition in HEK293 cells stably expressing the mouse KOR, Emax” value (“cAMP inhibition … Emax” for short) was 85.1%.

B2: helianorphin-10 (peptide)
peptide: cyclo(CT[dF][dF][dL][dK]PICFPDGR)
modifications: disulfide 1-9 (inferred)
notes: as for B1
With B2, the Ki in assay [3] was greater than 10000 nM.

B3: helianorphin-7 (peptide)
peptide: cyclo(CTASIPPICYGGFLR)
modifications: disulfide 1-9 (inferred)
notes: SFTI-1 scaffold (K replaced with A) with YGGFL grafted after the second Cys; source: synthetic peptide (Fmoc chemistry, backbone cyclised, oxidised, RP-HPLC purified)
In turn, B3 displayed a Ki in assay [3] greater than 10000 nM.

B4: helianorphin-18 (peptide)
peptide: cyclo(CTYGGFLRCRIRPKLK)
modifications: disulfide 1-9 (inferred)
notes: dyn A 1–13 divided into two fragments (YGGFLR and RIRPKLK) placed in the two loops of the SFTI-1 scaffold; source: synthetic peptide (Fmoc chemistry, backbone cyclised, oxidised, RP-HPLC purified)
Consider B4, for which the Ki in assay [1] stood at 650 nM.

B5: helianorphin-8 (peptide)
peptide: cyclo(CTYGGFPICFPDGR)
modifications: disulfide 1-9 (inferred)
notes: SFTI-1 scaffold with dyn A 1–4 (YGGF) grafted after CT; source: synthetic peptide (Fmoc chemistry, backbone cyclised, oxidised, RP-HPLC purified)
B5: the Ki in assay [3] is greater than 10000 nM.

In the case of cyclo(CT[dF][dF][dNle][dR]PICFPDGR) (disulfide 1-9 (inferred)) [helianorphin-12], in assay [2], the “cAMP inhibition … Emax” value turned out to be 117%.

B6: helianorphin-11 (peptide)
peptide: cyclo(CTASIPPIC[dF][dF][dL][dK]R)
modifications: disulfide 1-9 (inferred)
notes: as for B1
B6 returned a Ki in assay [3] greater than 10000 nM.

B7: sunflower trypsin inhibitor-1 (SFTI-1) (peptide)
peptide: cyclo(CTKSIPPICFPDGR)
modifications: disulfide 1-9 (inferred)
notes: SFTI-1, 14-residue cyclic peptide from the seeds of sunflower (Helianthus annuus); The methods say that all peptides were synthesised; source: synthetic peptide (Fmoc chemistry, backbone cyclised, oxidised, RP-HPLC purified)
The molecule B7 displayed a Ki in assay [4] greater than 30000 nM.

B8: helianorphin-19 (peptide)
peptide: cyclo(CYGGFLRRCIRPKLK)
modifications: disulfide 1-9 (inferred)
notes: dyn A 1–13 divided into two fragments (YGGFLRR and IRPKLK) placed in the two loops of the SFTI-1 scaffold; source: synthetic peptide (Fmoc chemistry, backbone cyclised, oxidised, RP-HPLC purified)
On to B8, for which the Ki in assay [1] is 21 nM; in assay [5] it was greater than 10000 nM; in assay [6], greater than 10000 nM. For the same molecule, the “β-arrestin-2 recruitment to the KOR (BRET, HEK293 cells with mouse KOR-EGFP and β-arrestin-2-nano-luciferase), EC50” value in assay [7] is 1400 nM. Also, the “cAMP inhibition … EC50” value in assay [2] was 45 nM. Also, the “cAMP inhibition … Emax” value in assay [2] is 108%.

B9: helianorphin-9 (peptide)
peptide: cyclo(CTASIPPICYGGFR)
modifications: disulfide 1-9 (inferred)
notes: SFTI-1 scaffold (K replaced with A) with dyn A 1–4 (YGGF) grafted after the second Cys; source: synthetic peptide (Fmoc chemistry, backbone cyclised, oxidised, RP-HPLC purified)
For the molecule B9, the Ki in assay [3] is greater than 10000 nM.

B10: helianorphin-5 (peptide)
peptide: cyclo(CYGGFLRICFPDGR)
modifications: disulfide 1-9 (inferred)
notes: SFTI-1 scaffold with dyn A 1–6 (YGGFLR) grafted after the first Cys; source: synthetic peptide (Fmoc chemistry, backbone cyclised, oxidised, RP-HPLC purified)
The molecule B10 came in with a Ki in assay [3] greater than 10000 nM.

As for cyclo(CTASIPPIC[dF][dF][dNle][dR]R) (disulfide 1-9 (inferred)) [helianorphin-13], the Ki in assay [3] is greater than 10000 nM.

B11: helianorphin-4 (peptide)
peptide: cyclo(CTKSIPPICYGGFLRRI)
modifications: disulfide 1-9 (inferred)
notes: as for B1
Regarding B11, the Ki in assay [1] came out at 2500 nM. Also, in assay [2], the “cAMP inhibition … EC50” value is 4700 nM and the “cAMP inhibition … Emax” value was 87.8%.

As to cyclo(CYGGFLRRIRPKLKCFPDGR) (disulfide 1-15 (inferred)) [helianorphin-1], the “cAMP inhibition … Emax” value in assay [2] came out at 106%.

B12: helianorphin-2 (peptide)
peptide: cyclo(CTKSIPPICYGGFLRRIRPKLK)
modifications: disulfide 1-9 (inferred)
notes: as for B1
The molecule B12 had a Ki in assay [1] of 97 nM. Moreover, in assay [2], the “cAMP inhibition … EC50” value amounted to 1300 nM and the “cAMP inhibition … Emax” value came to 102%.

B13: helianorphin-6 (peptide)
peptide: cyclo(CTYGGFLRCFPDGR)
modifications: disulfide 1-9 (inferred)
notes: SFTI-1 scaffold with dyn A 1–6 (YGGFLR) grafted after CT; source: synthetic peptide (Fmoc chemistry, backbone cyclised, oxidised, RP-HPLC purified)
B13 came in with a Ki in assay [3] greater than 10000 nM.
